One substance from US20050153372A1 can be followed below.

The target of the assay is calmodulin (in the CaMKI and calcineurin activity assays). Put plainly: cell-based or functional assay.

Turning to phosphorylated DARPP-21, the inhibition of CaMKI kinase activity in vitro, IC50 amounted to 1200 nM and the inhibition of calcineurin phosphatase activity in vitro, IC50 was determined as 1000 nM.
